# According to article PMC4707092:
# Where “and” joins values, the source holds several entries; their conditions need not be identical. Identical values can stand only once. Like-named read-outs stand apart in the source and are kept apart here.
# Experiments:
# [1] = biological target: C3b C3b (Homo sapiens) (UniProt P01024); details: cited from earlier work
# [2] = biological target: C3b (UniProt P01024); assay: SPR
# [3] = biological target: C3b C3b (Homo sapiens) (UniProt P01024); details: cited from earlier work; remark: listed apart in the source
# Chain of C3b C3b (Homo sapiens) (P01024 566-670): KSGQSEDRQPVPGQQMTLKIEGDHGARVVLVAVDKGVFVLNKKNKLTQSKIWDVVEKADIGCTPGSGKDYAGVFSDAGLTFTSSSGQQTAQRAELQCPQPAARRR
substance,measurement,setting,value
Factor H CCPs 1-4 (from UniProt P08603),Kd,[1],11 µM and 14 µM
FHΔ10–15,"KD1 (1:2 binding model, first of two independent sites)",[2],1.7 µM
same,"KD2 (1:2 binding model, second of two independent sites)",[2],5.6 µM
Factor H-like protein 1 (natural protein),Kd,[2],1.52 µM
Factor H (from UniProt P08603 19-1231) (natural protein),Kd,[2],0.647 µM
Factor H CCPs 19-20 (from UniProt P08603),Kd,[3],5.4 µM and 4 µM
